What all share (assay): cell-based or functional assay
The target in assay [1] is T1, SARS-CoV-2 spike D614G (pseudovirus) (SARS-CoV-2, UniProt P0DTC2 14-1273).
Assay [2] addresses SARS-CoV-2 spike V483A (pseudovirus) (SARS-CoV-2, UniProt P0DTC2 14-1273).
In assay [3] the target is SARS-CoV-2 spike V367F (pseudovirus) (SARS-CoV-2, UniProt P0DTC2 14-1273).
Assay [4] deals with SARS-CoV-2 spike G476S (pseudovirus) (SARS-CoV-2, UniProt P0DTC2 14-1273).
For assay [5], the target named is T1, SARS-CoV-2 spike D614G (pseudovirus). This is another data set of the same source.

B1: L6.dP03H10 (antibody, V domains shown)
VH: QVQLVQSGAEVKKPGSSVKVSCKASGGTFSIYAITWVRQAPGQGLEWMGGIIPIIGTANYAQKFQGRVTITADKSTSTAYMELSSLRSEDTAVYYCARDFRYCSSTRCYFWFDPWGQGTLVTVSS
VL: DIQMTQSPSSLSASVGDRVTITCRASQNISSYLNWYQQEAGKAPKLLIYAASSLQSGVPSRFSGSGSGTDFTLTISSLQPEDFATYYCQQSYSTPRTFGQGTKVDIK
As to B1, the “neutralization IC50” value in assay [1] is 1.9 ng/mL; in assay [2] it was 1.9 ng/mL; in assay [3], 0.25 ng/mL; in assay [4], 0.08 ng/mL.

B2: L6.dP02E05 (antibody, V domains shown)
VH: QVQLVQSGSELKKPGASVKVSCKASGYTFATYALNWVRQAPGQGLEWMGWVNTNTGSPTYAQGFTGRFVFSFDTSVSTAYLQIRTLKAEDTAVYYCAVYYYDSGSPGWFDPWGQGTLVTVSS
VL: DIQLTQSPSSLSASVGDRVTITCRASQTASSYLNWYQQKPGKAPNLLIYAASSLQSGVPSRFSGSGSVTDFTLTISSLQPEDFATYYCQQSYSTPPTFGQGTKVDIK
notes: human IgG1
Turning to B2, the figures for the “neutralization IC50” value in assay [1], in assay [2] and in assay [3] were 3.9 ng/mL, 3.9 ng/mL and 0.04 ng/mL, respectively.

B3: L6.dP04A03 (antibody, V domains shown)
VH: QVQLVQSGAEVKKPGSSVKVSCKASGGTFSSSAISWVRQAPGQGLEWMGGIIPILDITNYAQKFQGRVTITADKSTSTAFMELSSLRSEDTAVYYCALRNQWDLLVYWGQGTLVTVSS
VL: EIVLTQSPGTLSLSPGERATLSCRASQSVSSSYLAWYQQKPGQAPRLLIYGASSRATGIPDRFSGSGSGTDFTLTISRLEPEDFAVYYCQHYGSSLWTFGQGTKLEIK
For B3, the entries for the “neutralization IC50” value in assay [1], in assay [2] and in assay [4] were 24 ng/mL, 160 ng/mL and 84 ng/mL, respectively.

B4: L6.P4A3.1 (antibody, V domains shown)
VH: QVQLVQSGAEVKKPGSSVKVSCKASGGIFSSSAISWVRQAPGQGLEWMGGIIPILDISNYAQKFQGRVTITADKSTSTAFMELSSLRSEDTAVYYCALTNQWDLLVYWGQGTLVTVSS
VL: EIVLTQSPGTLSLSPGERATLSCRASQRVSSSYLAWYQQKPGQAPRLLIYGAESRATGIPDRFSGSGSGTDFTLTISRLEPEDFAVYYCQHYGSSLWTFGQGTKLEIK
B4: in assay [5], the “PSV in HeLa-ACE2 cells IC50” value worked out at 13 ng/mL.

B5: L6.dP04E05 (antibody, V domains shown)
VH: EVQLVESGGGLVQPGRSLRLSCAASGFTFDDYAMHWVRQAPGKGLEWVSGISWNSDNIGYADSVKGRFTVSRDNAKNSLYLQMNSLRAEDTALYYCTKDIHRKNDYYDILTGYYRVRYYYYAMDVWGQGTTVTVSS
VL: QSVLTQPPSASGSPGQSVTISCTGTSSDAGGYNYVSWYQQHPGKAPKLMIYEVIKRPSGVPDRFSGSKSGNTASLTVSGLQAEDEADYYCSSFAGTSVVFGGGTKLTVL
notes: human IgG1
As to B5, the “PSV in HeLa-ACE2 cells IC50” value in assay [5] was 8 ng/mL. Further, the “neutralization IC50” value in assay [1] came to 0.52 ng/mL; in assay [2], 0.55 ng/mL; in assay [3] it was 0.07 ng/mL; in assay [4] it was 0.16 ng/mL.

The values above are taken from patent US20230357364A1 (INTERNATIONAL AIDS VACCINE INITIATIVE, published 2023).
